Consider 35 molecules from patent US20240018502A1.

Changes are numbered by the printed parent chain. In names and notes the source's numbering stands.

In the assay the target is plasma purified human complement protein C3 (human) (UniProt P01024). The assay can be described thus: cell-based or functional assay.
plasma purified human complement protein C3 (human), sequence (P01024 23-667, chain 1 of 2): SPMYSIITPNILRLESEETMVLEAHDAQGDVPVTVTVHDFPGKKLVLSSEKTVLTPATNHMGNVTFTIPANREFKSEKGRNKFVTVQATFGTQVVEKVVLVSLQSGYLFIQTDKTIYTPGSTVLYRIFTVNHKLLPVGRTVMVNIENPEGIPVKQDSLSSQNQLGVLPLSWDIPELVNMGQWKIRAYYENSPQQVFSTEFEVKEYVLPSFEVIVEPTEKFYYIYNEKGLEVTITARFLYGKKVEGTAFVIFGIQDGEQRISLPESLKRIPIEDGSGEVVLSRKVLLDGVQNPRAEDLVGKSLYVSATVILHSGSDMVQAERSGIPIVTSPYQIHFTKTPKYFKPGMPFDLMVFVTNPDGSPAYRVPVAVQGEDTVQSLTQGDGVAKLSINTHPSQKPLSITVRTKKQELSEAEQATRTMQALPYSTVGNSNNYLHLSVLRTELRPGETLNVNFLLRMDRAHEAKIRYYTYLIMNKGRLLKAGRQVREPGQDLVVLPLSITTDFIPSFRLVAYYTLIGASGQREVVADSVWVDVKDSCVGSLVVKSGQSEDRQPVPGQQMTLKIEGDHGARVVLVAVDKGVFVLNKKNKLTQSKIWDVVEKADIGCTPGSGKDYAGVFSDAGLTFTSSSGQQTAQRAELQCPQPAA
plasma purified human complement protein C3 (human), sequence (P01024 672-1663, chain 2 of 2): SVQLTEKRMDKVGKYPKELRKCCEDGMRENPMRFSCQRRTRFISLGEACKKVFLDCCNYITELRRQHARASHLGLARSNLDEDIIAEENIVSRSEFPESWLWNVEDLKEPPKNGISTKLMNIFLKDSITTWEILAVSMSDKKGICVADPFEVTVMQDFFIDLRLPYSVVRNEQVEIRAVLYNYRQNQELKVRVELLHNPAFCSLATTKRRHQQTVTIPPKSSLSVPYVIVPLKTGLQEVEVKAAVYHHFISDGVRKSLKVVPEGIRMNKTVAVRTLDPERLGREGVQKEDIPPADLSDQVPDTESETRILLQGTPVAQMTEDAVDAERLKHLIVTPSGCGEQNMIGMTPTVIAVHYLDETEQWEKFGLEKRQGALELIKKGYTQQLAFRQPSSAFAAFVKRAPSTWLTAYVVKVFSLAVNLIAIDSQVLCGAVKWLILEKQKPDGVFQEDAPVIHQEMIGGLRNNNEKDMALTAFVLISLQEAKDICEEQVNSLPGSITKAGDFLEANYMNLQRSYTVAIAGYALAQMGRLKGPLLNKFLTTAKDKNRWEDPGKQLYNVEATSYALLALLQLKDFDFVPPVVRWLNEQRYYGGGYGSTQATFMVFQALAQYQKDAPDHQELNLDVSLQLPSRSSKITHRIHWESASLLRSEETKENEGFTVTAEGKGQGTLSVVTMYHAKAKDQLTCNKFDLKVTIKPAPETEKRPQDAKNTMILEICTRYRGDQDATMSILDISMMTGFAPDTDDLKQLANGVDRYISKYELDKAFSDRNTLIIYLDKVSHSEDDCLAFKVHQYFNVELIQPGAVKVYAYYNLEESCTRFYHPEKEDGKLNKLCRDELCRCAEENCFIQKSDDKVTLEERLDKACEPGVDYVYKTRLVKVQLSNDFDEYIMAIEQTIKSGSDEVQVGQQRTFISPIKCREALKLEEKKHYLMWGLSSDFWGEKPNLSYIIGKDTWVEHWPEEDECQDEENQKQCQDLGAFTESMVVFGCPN

B1: MTSP-1 protease domain I41S/T98S/F99L/C122S/Q192A (enzyme)
chain: VVGGTDADEGEWPWQVSLHALGQGHSCGASLISPNWLVSAAHCYIDDRGFRYSDPTQWTAFLGLHDQSQRSAPGVQERRLKRIISHPFFNDFSLDYDIALLELEKPAEYSSMVRPISLPDASHVFPAGKAIWVTGWGHTQYGGTGALILQKGEIRVINQTTCENLLPQQITPRMMCVGFLSGGVDSCAGDSGGPLSSVEADGRIFQAGVVSWGDGCAQRNKPGVYTRLPLFRDWIKENTGV
Molecule B1 yielded an EC50 hC3 cleavage of 17.4 nM.

B2: MTSP-1 protease domain I41T/Y60gL/N95D/D96F/F97S/F99L/C122S/Q175S/Q192A (enzyme)
chain: B1 chain with S26T, Y52L, N90D, D91F, F92S, S93T, Q169S
B2: the EC50 hC3 cleavage came out at 247 nM.

B3: MTSP-1 protease domain I41A/F97W/T98S/F99L/C122S/Q192A (enzyme)
chain: B1 chain with S26A, F92W
Consider B3, for which the EC50 hC3 cleavage was determined as 27 nM.

B4: MTSP-1 protease domain I41S/F99L/C122S/G151N/Q175M/Q192G/D217V (enzyme)
chain: B1 chain with S93T, G145N, Q169M, A188G, D214V
B4: the EC50 hC3 cleavage amounted to 3.19 nM.

B5: MTSP-1 protease domain I41S/F97Q/F99L/C122S/Q192S (enzyme)
chain: B1 chain with F92Q, S93T, A188S
As to B5, the EC50 hC3 cleavage was found to be 53.5 nM.

B6: MTSP-1 protease domain I41G/F97L/F99L/C122S/Q192S (enzyme)
chain: B1 chain with S26G, F92L, S93T, A188S
B6 registered an EC50 hC3 cleavage of 41.4 nM.

B7: MTSP-1 protease domain I41A/Y60gW/N95D/D96F/F97G/F99L/C122S/Q175H/Q192A (enzyme)
chain: B1 chain with S26A, Y52W, N90D, D91F, F92G, S93T, Q169H
B7 returned an EC50 hC3 cleavage of 17.5 nM.

B8: MTSP-1 protease domain I41A/Y60gW/F99L/C122S/Q175T/Q192A (enzyme)
chain: B1 chain with S26A, Y52W, S93T, Q169T
With B8, the EC50 hC3 cleavage was 17.6 nM.

B9: MTSP-1 protease domain I41L/N95D/D96T/F97W/F99L/C122S/Q192A (enzyme)
chain: B1 chain with S26L, N90D, D91T, F92W, S93T
B9 returned an EC50 hC3 cleavage of 62.6 nM.

B10: MTSP-1 protease domain I41T/F97L/F99L/C122S/G151N/Q175S/Q192S/D217W (enzyme)
chain: B1 chain with S26T, F92L, S93T, G145N, Q169S, A188S, D214W
In turn, B10 returned an EC50 hC3 cleavage of 24.2 nM.

B11: MTSP-1 protease domain I41G/F97R/F99L/C122S/G151N/Q175L/Q192S/D217V (enzyme)
chain: B1 chain with S26G, F92R, S93T, G145N, Q169L, A188S, D214V
In turn, B11 came in with an EC50 hC3 cleavage of 4.18 nM.

B12: MTSP-1 protease domain I41S/F97L/F99L/C122S/G151N/Q192G/D217V (enzyme)
chain: B1 chain with F92L, S93T, G145N, A188G, D214V
B12 yielded an EC50 hC3 cleavage of 11.9 nM.

B13: MTSP-1 protease domain I41S/F97S/F99L/C122S/G151N/Q175L/Q192A/D217L (enzyme)
chain: B1 chain with F92S, S93T, G145N, Q169L, D214L
Molecule B13 returned an EC50 hC3 cleavage of 11.2 nM.

B14: MTSP-1 protease domain I41D/F97T/F99M/C122S/Q192V/D217M (enzyme)
chain: B1 chain with S26D, F92T, S93T, L94M, A188V, D214M
Molecule B14 registered an EC50 hC3 cleavage of 63.8 nM.

B15: MTSP-1 protease domain I41A/F97S/ins97aA/C122S (enzyme)
chain: VVGGTDADEGEWPWQVSLHALGQGHACGASLISPNWLVSAAHCYIDDRGFRYSDPTQWTAFLGLHDQSQRSAPGVQERRLKRIISHPFFNDSATFDYDIALLELEKPAEYSSMVRPISLPDASHVFPAGKAIWVTGWGHTQYGGTGALILQKGEIRVINQTTCENLLPQQITPRMMCVGFLSGGVDSCQGDSGGPLSSVEADGRIFQAGVVSWGDGCAQRNKPGVYTRLPLFRDWIKENTGV
On to B15, for which the EC50 hC3 cleavage was 19.8 nM.

B16: MTSP-1 protease domain I41S/D60bY/ins97aV/A112V/C122S/Q192G/Q209L (enzyme)
chain: B15 chain with A26S, D47Y, S92F, A93V, A108V, Q189G, Q207L
For the molecule B16, the EC50 hC3 cleavage stood at 4.76 nM.

B17: MTSP-1 protease domain Q38H/I41T/D96R/ins97aG/C122S/G151S (enzyme)
chain: B15 chain with Q23H, A26T, D91R, S92F, A93G, G146S
In turn, B17 yielded an EC50 hC3 cleavage of 54.1 nM.

B18: MTSP-1 protease domain I41S/Y59F/F97Y/ins97aV/C122S/Q192G (enzyme)
chain: B15 chain with A26S, Y44F, S92Y, A93V, Q189G
In turn, B18 registered an EC50 hC3 cleavage of 29.1 nM.

B19: MTSP-1 protease domain I41S/Y59F/D60bY/ins97aV/C122S/Q192G (enzyme)
chain: B15 chain with A26S, Y44F, D47Y, S92F, A93V, Q189G
B19 returned an EC50 hC3 cleavage of 5.24 nM.

B20: MTSP-1 protease domain I41S/ins97aV/C122S/N164D/Q192G/R235L (enzyme)
chain: B15 chain with A26S, S92F, A93V, N159D, Q189G, R233L
Consider B20, for which the EC50 hC3 cleavage turned out to be 49.7 nM.

B21: MTSP-1 protease domain I41S/ins97aV/C122S/N164D/Q192G/R235H (enzyme)
chain: B15 chain with A26S, S92F, A93V, N159D, Q189G, R233H
B21 showed an EC50 hC3 cleavage of 46.4 nM.

B22: MTSP-1 protease domain A35T/I41S/Y59F/ins97aV/C122S/Y146F/V183A/Q192G/R235H (enzyme)
chain: B15 chain with A20T, A26S, Y44F, S92F, A93V, Y142F, V178A, Q189G, R233H
In the case of B22, the EC50 hC3 cleavage came out at 18.4 nM.

B23: MTSP-1 protease domain Q38M/I41T/D96M/ins97aH/C122S/G151E (enzyme)
chain: B15 chain with Q23M, A26T, D91M, S92F, A93H, G146E
For the molecule B23, the EC50 hC3 cleavage came to 19.1 nM.

B24: MTSP-1 protease domain I41S/Y59F/ins97aV/C122S/Q192G/N223D (enzyme)
chain: B15 chain with A26S, Y44F, S92F, A93V, Q189G, N221D
As for B24, the EC50 hC3 cleavage was 34.1 nM.

B25: MTSP-1 Q38H/I41S/D60bT/F60eS/Y60gW/D96K/F97G/ins97aV/T98P/C122S/G151H/Q175L/Q192D (enzyme)
chain: VVGGTDADEGEWPWQVSLHALGHGHSCGASLISPNWLVSAAHCYIDTRGSRWSDPTQWTAFLGLHDQSQRSAPGVQERRLKRIISHPFFNKGVPFDYDIALLELEKPAEYSSMVRPISLPDASHVFPAGKAIWVTGWGHTQYGGTHALILQKGEIRVINQTTCENLLPQLITPRMMCVGFLSGGVDSCDGDSGGPLSSVEADGRIFQAGVVSWGDGCAQRNKPGVYTRLPLFRDWIKENTGV
For B25, the EC50 of hC3 cleavage was 18.3 nM.

B26: MTSP-1 protease domain I41S/D96K/F97G/ins97aV/T98P/F99L/C122S/Q175H/Q192D (enzyme)
chain: B25 chain with H23Q, T47D, S50F, W52Y, F95L, H146G, L170H
Consider B26, for which the EC50 hC3 cleavage was 195 nM.

B27: MTSP-1 Q38H/I41S/D96K/F97G/ins97aV/T98P/F99L/C122S/Q192D (enzyme)
chain: B25 chain with T47D, S50F, W52Y, F95L, H146G, L170Q
In turn, B27 gave an EC50 of hC3 cleavage of 108 nM.

B28: MTSP-1 protease domain I41S/D60bY/ins97aV/T98N/C122S/Q192H (enzyme)
chain: B15 chain with A26S, D47Y, S92F, A93V, T94N, Q189H
As for B28, the EC50 hC3 cleavage amounted to 8.1 nM.

B29: MTSP-1 protease domain I41S/D96K/F97G/ins97aV/T98P/F99L/C122S/Q192V (enzyme)
chain: B15 chain with A26S, D91K, S92G, A93V, T94P, F95L, Q189V
For B29, the EC50 hC3 cleavage stood at 32.3 nM.

B30: MTSP-1 Q38H/I41S/D60bT/F60eS/Y60gW/D96K/F97G/ins97aV/T98P/F99L/C122S/G151H/Q192D (enzyme)
chain: B25 chain with F95L, L170Q
For the molecule B30, the EC50 of hC3 cleavage is 19.9 nM.

B31: MTSP-1 Q38H/I41S/D96K/F97G/ins97aV/T98P/F99L/C122S/Q175L/Q192D (enzyme)
chain: B25 chain with T47D, S50F, W52Y, F95L, H146G
Take B31: the EC50 of hC3 cleavage is 22 nM.

B32: MTSP-1 Q38H/I41S/D60bT/F60eS/Y60gW/D96K/F97G/ins97aV/T98P/F99L/C122S/Q175L/Q192D (enzyme)
chain: B25 chain with F95L, H146G
The molecule B32 returned an EC50 of hC3 cleavage of 5.25 nM.

B33: MTSP-1 protease domain I41A/F97G/ins97aV/T98E/C122S (enzyme)
chain: B15 chain with S92G, A93V, T94E
In the case of B33, the EC50 hC3 cleavage was determined as 18.1 nM.

B34: MTSP-1 protease domain I41S/F97G/ins97aA/T98P/C122S/Q192A (enzyme)
chain: B15 chain with A26S, S92G, T94P, Q189A
B34 registered an EC50 hC3 cleavage of 57.2 nM.

B35: MTSP-1 I41S/D96K/F97G/ins97aV/T98P/F99L/C122S/Q175L/Q192D (enzyme)
chain: B25 chain with H23Q, T47D, S50F, W52Y, F95L, H146G
Molecule B35 returned an EC50 of hC3 cleavage of 68.6 nM.
